Results on one substance are retold here after paper doi:10.1101/2023.08.23.554525.

The target of this test is H1 hemagglutinin (A/New Caledonia/20/1999(H1N1)), recombinant HA trimer used for electron microscopy (influenza A virus A/New Caledonia/20/1999 (H1N1)) (UniProt Q6WG00). As to the kind of experiment: cryo-EM structure.

Take “H1 hemagglutinin (A/New Caledonia/20/1999(H1N1)), recombinant HA trimer used for electron microscopy (from UniProt Q6WG00 1-565) (natural protein)”: the stoichiometry N stood at 3.

What is called stoichiometry N is a count of units in the complex or per binding partner.
